# Patent publication US20230125561A1
# Target: SARS-CoV-2 Spike S1 protein, B.1.1.7 (UK (Kent)) variant (SARS-CoV-2) (UniProt P0DTC2)
# Assay: ELISA
# Conditions: designed binder
substance,measurement,value
Neumifil (HEX17: trimeric (hexavalent) form based on S. pneumoniae CBM40),EC50,0.137 µg/mL
